Earlier results, collected in paper PMC2174977.

Target: chemoreceptor (Tar) (Escherichia coli) (UniProt P07017)
UniProt P07017, sequence (P07017 whole entry): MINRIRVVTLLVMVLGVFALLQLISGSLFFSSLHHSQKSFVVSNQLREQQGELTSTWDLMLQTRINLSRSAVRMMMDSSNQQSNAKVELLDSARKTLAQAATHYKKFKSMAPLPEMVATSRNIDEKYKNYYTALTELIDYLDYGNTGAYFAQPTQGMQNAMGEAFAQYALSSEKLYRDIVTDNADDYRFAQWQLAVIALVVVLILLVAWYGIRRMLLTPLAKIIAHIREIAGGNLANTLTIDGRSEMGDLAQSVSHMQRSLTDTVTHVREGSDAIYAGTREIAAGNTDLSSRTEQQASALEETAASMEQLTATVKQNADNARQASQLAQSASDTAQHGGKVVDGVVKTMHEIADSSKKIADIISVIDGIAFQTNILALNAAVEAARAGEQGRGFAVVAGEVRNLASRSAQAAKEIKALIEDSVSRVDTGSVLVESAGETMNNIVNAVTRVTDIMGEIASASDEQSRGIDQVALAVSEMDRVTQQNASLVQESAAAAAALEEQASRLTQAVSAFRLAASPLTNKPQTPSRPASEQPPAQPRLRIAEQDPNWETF

Kd: 11 µM
Substance: CheR (from UniProt P07364)
